Data on 1 molecule can be found in patent US20220119534A1 (DRAGONFLY THERAPEUTICS, published 2022).

The target of test [1] is T1, Human CLEC12A-His (human, UniProt Q5QGZ9 65-265).
T1 construct: Recombinant soluble protein made in house (Dragonfly Tx); The hCLEC12A spot of the HuProt array is written under this molecule as well; also called hCLEC12A-His; hCLEC12A; not shown: His tag
T1 sequence: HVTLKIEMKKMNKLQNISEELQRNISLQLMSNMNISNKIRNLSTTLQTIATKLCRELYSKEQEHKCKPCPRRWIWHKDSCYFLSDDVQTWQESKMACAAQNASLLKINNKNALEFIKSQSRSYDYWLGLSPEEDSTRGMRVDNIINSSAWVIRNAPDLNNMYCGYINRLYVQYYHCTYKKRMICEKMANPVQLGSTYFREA
Briefly: SPR Biacore 8K 37 C; TriNKET captured on anti-hFc chip, hCLEC12A-His as analyte; 1:1 fit; control sample, n=2.

Test [2] concerns the target T2, Human CD16a V158 (FcγRIIIa V158) (human, UniProt P08637 17-208, biotinylated (site not stated)).
T2 construct: V158 is the allele name in mature numbering; also called hCD16aV; hCD16a V158
Briefly: SPR; biotinylated CD16a V158 captured on SA chip, TriNKET as analyte; 1:1 kinetic fit; after 4 wks 40 C in CST pH 7.0, n=3.

For test [3], the target named is T3, mFc-hNKG2D (human, UniProt P26718 73-216).
T3 construct: extracellular domain; Made in house (Dragonfly Tx); the order of tag and ECD follows the name mFc-hNKG2D; also called mFc-tagged human NKG2D; not shown: mouse Fc tag
T3 sequence (looked up): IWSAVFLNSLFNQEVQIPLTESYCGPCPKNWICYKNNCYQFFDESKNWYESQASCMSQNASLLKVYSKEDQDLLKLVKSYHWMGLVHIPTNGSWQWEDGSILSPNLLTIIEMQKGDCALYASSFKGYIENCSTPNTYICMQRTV
In words: SPR Biacore 8K 37 C; mFc-hNKG2D captured on anti-mFc chip, TriNKET as analyte; steady state fit; after low pH hold, n=3.

Test [4] concerns the target T1, Human CLEC12A-His. Briefly: SPR Biacore 8K 37 C; TriNKET captured on anti-hFc chip, hCLEC12A-His as analyte; 1:1 fit; after 4 wks 40 C in phosphate/citrate/NaCl pH 7.8, n=2.
Method: Briefly, human Fc specific antibodies were covalently immobilized at a density ˜8000-10000 resonance units (RU) on carboxy methyl dextran matrix of a CM5 biosensor chip via amine-coupling chemistry to create an anti-hFc IgG chip. […] Association was monitored for 300 seconds and dissociation was monitored for 600 seconds. Surfaces were regenerated between cycles with three pulses of 10 mM glycine-HCl, pH 1.7 injected for 20 seconds at 100 μL/min. HBS-EP+ (1×) with 0.1 mg/mL BSA buffer was used throughout the experiment. Data were analyzed using Biacore 8K Insight evaluation software (GE Healthcare). The kinetic rate constants and overall affinity were obtained using 1:1 kinetic fit binding model (FIGS. 71A-71B).

T2 sequence (P08637 17-208 F176V limits assumed): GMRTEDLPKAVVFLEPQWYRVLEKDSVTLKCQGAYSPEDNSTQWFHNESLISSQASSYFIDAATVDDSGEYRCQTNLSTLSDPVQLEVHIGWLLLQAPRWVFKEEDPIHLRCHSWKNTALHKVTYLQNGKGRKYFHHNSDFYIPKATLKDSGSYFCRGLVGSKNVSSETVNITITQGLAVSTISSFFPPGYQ

B1: F3'-1602 TriNKET (bispecific antibody, human IgG1, kappa)
chain: QLQLQESGPGLVKPSETLSLTCTVSGFSLTNYGLHWIRQPPGKCLEWIGVIWSGGKTDYNPSLKSRVTISKDTSKNQFSLKLSSVQAADTAVYYCAKYDYDDSLDYWGQGTLVTVSSGGGGSGGGGSGGGGSGGGGSDIQMTQSPSSLSASVGDRVTITCHASQNINFWLSWYQQKPGKAPKLLIYEASNLHTGVPSRFSGSGSGTRFTLTISSLQPEDIATYYCQQSHSYPLTFGCGTKLEIKGSDKTHTCPPCPAPELLGGPSVFLFPPKPKDTLMISRTPEVTCVVVDVSHEDPEVKFNWYVDGVEVHNAKTKPREEQYNSTYRVVSVLTVLHQDWLNGKEYKCKVSNKALPAPIEKTISKAKGQPREPRVYTLPPCRDELTKNQVSLTCLVKGFYPSDIAVEWESNGQPENNYKTTPPVLVSDGSFTLYSKLTVDKSRWQQGNVFSCSVMHEALHNHYTQKSLSLSPG
heavy: EVQLVESGGGLVKPGGSLRLSCAASGFTFSSYSMNWVRQAPGKGLEWVSSISSSSSYIYYADSVKGRFTISRDNAKNSLYLQMNSLRAEDTAVYYCARGAPIGAAAGWFDPWGQGTLVTVSSASTKGPSVFPLAPSSKSTSGGTAALGCLVKDYFPEPVTVSWNSGALTSGVHTFPAVLQSSGLYSLSSVVTVPSSSLGTQTYICNVNHKPSNTKVDKKVEPKSCDKTHTCPPCPAPELLGGPSVFLFPPKPKDTLMISRTPEVTCVVVDVSHEDPEVKFNWYVDGVEVHNAKTKPREEQYNSTYRVVSVLTVLHQDWLNGKEYKCKVSNKALPAPIEKTISKAKGQPREPQVCTLPPSRDELTENQVSLTCLVKGFYPSDIAVEWESNGQPENNYKTTPPVLDSDGSFFLYSWLTVDKSRWQQGNVFSCSVMHEALHNHYTQKSLSLSPG
light: DIQMTQSPSSVSASVGDRVTITCRASQGISSWLAWYQQKPGKAPKLLIYAASSLQSGVPSRFSGSGSGTDFTLTISSLQPEDFATYYCQQGVSFPRTFGGGTKVEIKRTVAAPSVFIFPPSDEQLKSGTASVVCLLNNFYPREAKVQWKVDNALQSGNSQESVTEQDSKDSTYSLSSTLTLSKADYEKHKVYACEVTHQGLSSPVTKSFNRGEC
notes: Trispecific F3' format: CLEC12A scFv-Fc paired with NKG2D Fab-Fc; Stressed and control samples of the stability studies are the same molecule; also called AB0237
B1: the dissociation constant Kd was determined as 1.11 nM in test [1], 213 nM in test [2], 672 nM in test [3] and 1.14 nM in test [4]. For the same molecule, the off-rate constant (koff) turned out to be 0.000873 s⁻¹ in test [1], 0.0225 s⁻¹ in test [2] and 0.000948 s⁻¹ in test [4]. The figures for the on-rate constant (kon) in test [1], in test [2] and in test [4] were 791000 M⁻¹ s⁻¹, 105000 M⁻¹ s⁻¹ and 829000 M⁻¹ s⁻¹, respectively.
